Data published in US20250188154A1.

Assays:
[1] = target: SARS-CoV-2 spike D614G on pseudovirus (VRC7480.D614G) (SARS-CoV-2) (UniProt P0DTC2); experiment: cell-based or functional assay
[2] = target: SARS-CoV-2 D614G live virus spike (SARS-CoV-2) (UniProt P0DTC2); experiment: cell-based or functional assay

Substance	Pseudovirus IC50 [1] [µg/mL]	Pseudovirus IC80 [1] [µg/mL]	Pseudovirus MPI [1] [%]	Pseudovirus neutralization IC50 [1] [µg/mL]	Pseudovirus neutralization IC80 [1] [µg/mL]	Pseudovirus neutralization MPI [1] [%]	live virus neutralization IC50 [2] [µg/mL]
DH1042 (antibody)	0.011	0.053	100	0.011	0.053	100	
DH1047 (antibody)				0.09	0.36	100	0.059
